Measurements as given in patent US20210283212A1 (RA PHARMACEUTICALS, published 2021).
Where two headings read alike, the source gives them in different places. Positions of bridges follow the written chain, without caps; N, C: chain ends. Non-standard residues stand in square brackets, D forms with d. Primed or numbered codes have the meaning given here. No end group written: not given here. *: point of attachment. mXylyl(3) = bridging moiety between the two residues given in brackets; Lys(ivDde) = CC(C)CC(NCCCC[C@H](N)C(=O)O)=C1C(=O)CC(C)(C)CC1=O; mXylyl″ = bridging moiety between the two marked residues; Ala(1H-tetrazol-5-yl) = N[C@@H](Cc1nnn[nH]1)C(=O)O; Trp(5-F) = N[C@@H](Cc1c[nH]c2ccc(F)cc12)C(=O)O; Trp(7-aza) = N[C@@H](Cc1c[nH]c2ncccc12)C(=O)O; mXylyl(4) = bridging moiety between residues; Trp(1-Me) = Cn1cc(C[C@H](N)C(=O)O)c2ccccc21; Palmitoyl = CCCCCCCCCCCCCCCC(=O)*; NMeD = CN[C@@H](CC(=O)O)C(=O)O; Chg = N[C@H](C(=O)O)C1CCCCC1; Phg = N[C@H](C(=O)O)c1ccccc1; Tle = CC(C)(C)[C@H](N)C(=O)O; NMeS = CN[C@@H](CO)C(=O)O; Nva = CCC[C@H](N)C(=O)O; Mpa = O=C(O)CCS

Tests used:
Test in all cases: cell-based or functional assay
human C5 protein [1] = biological target: T1, human C5 protein (human, UniProt P01031 19-673; P01031 678-1676)
human C5 protein [2] = biological target: T1, human C5 protein; remark: listed apart in the source
human C5 protein [3] = biological target: T1, human C5 protein; remark: listed apart in the source
human C5 protein [4] = biological target: T1, human C5 protein; remark: listed apart in the source
human C5 protein [5] = biological target: T1, human C5 protein; remark: listed apart in the source
human C5 protein [6] = biological target: T1, human C5 protein; remark: listed apart in the source
human C5 protein [7] = biological target: T1, human C5 protein; remark: listed apart in the source
primate C5 protein = primate C5 protein (primate, UniProt A0A2K5U1T1 19-673; A0A2K5U1T1 678-1676, Mature C5 is a disulfide-linked heterodimer of beta and alpha chains; it is glycosylated. The letters do not carry either feature.)
primate C5 protein, sequence (beta, as listed by the source limits assumed, chain 1 of 2): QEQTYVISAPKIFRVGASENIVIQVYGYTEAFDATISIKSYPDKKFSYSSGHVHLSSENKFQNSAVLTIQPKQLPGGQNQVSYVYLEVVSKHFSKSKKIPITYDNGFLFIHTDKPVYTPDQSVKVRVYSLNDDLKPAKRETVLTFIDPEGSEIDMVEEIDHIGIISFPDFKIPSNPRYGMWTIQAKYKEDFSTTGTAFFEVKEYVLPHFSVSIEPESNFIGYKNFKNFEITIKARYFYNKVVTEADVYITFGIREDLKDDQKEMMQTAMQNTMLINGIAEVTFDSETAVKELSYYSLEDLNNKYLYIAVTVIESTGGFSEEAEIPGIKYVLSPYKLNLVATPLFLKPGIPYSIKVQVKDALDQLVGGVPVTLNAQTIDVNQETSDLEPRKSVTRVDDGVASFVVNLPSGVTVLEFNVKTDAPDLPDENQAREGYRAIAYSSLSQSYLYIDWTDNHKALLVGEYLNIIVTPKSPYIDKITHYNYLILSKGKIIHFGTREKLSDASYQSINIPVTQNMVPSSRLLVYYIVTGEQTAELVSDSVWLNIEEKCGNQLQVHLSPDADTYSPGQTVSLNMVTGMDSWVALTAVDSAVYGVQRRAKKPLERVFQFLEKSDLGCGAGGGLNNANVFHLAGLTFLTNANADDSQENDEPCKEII
primate C5 protein, sequence (alpha, as listed by the source limits assumed, chain 2 of 2): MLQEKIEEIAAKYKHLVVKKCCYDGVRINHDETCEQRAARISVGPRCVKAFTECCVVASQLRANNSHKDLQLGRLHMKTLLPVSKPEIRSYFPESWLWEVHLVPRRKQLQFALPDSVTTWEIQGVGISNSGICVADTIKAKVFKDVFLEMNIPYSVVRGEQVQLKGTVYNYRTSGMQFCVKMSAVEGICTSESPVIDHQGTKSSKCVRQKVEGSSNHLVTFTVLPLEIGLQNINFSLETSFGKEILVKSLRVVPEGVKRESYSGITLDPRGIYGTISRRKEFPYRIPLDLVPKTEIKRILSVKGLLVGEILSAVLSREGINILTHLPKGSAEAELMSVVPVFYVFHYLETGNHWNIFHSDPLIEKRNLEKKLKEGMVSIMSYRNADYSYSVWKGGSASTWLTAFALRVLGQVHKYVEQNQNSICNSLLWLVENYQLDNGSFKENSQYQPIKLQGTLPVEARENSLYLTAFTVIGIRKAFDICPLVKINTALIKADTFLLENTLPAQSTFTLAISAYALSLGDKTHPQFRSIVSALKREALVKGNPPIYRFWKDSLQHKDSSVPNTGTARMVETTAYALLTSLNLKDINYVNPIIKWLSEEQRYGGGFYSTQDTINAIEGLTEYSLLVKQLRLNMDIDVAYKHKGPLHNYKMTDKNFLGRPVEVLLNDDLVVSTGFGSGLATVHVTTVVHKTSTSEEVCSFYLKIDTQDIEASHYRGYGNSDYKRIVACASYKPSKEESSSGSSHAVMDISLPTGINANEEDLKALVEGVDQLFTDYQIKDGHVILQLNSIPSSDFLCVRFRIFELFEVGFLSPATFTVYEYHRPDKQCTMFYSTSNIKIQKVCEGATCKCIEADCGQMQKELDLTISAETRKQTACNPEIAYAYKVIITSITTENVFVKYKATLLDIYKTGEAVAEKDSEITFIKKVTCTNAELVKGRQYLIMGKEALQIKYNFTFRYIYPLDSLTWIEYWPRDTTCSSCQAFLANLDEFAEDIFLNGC

MCVERFCDVYW-NH2 (linker 2-7 via mXylyl(4)) [R3044]
Avg. IC50, human hemolysis assay (human C5 protein [1]): > 50000 nM
Avg. IC50 (nM), human hemolysis assay (human C5 protein [2]): > 50000 nM

MCVERFCDVY-NH2 (linker 2-7 via mXylyl(4)) [R3045]
Avg. IC50, human hemolysis assay (human C5 protein [1]): > 100000 nM
Avg. IC50 (nM), human hemolysis assay (human C5 protein [2]): > 100000 nM

Ac-[Nva]CYNN[Tle]ECEYP[Phg][Tle]-NH2 (linker 2-8 via mXylyl(3)) [R3129]
Avg. IC50, human hemolysis assay (human C5 protein [1]): > 100000 nM
Avg. IC50 (nM), human hemolysis assay (human C5 protein [3]): > 100000 nM

MCVERFC-NH2 (linker 2-7 via mXylyl(4)) [R3047]
Avg. IC50, human hemolysis assay (human C5 protein [1]): > 100000 nM
Avg. IC50 (nM), human hemolysis assay (human C5 protein [2]): > 100000 nM

B1: R3110 (peptide)
peptide: Ac-YEN[Tle]Y[Trp(1-Me)]EYP[Phg][Nva]-NH2
SMILES: CCC[C@H](NC(=O)[C@@H](NC(=O)[C@@H]1CCCN1C(=O)[C@H](Cc1ccc(O)cc1)NC(=O)[C@H](CCC(=O)O)NC(=O)[C@H](Cc1cn(C)c2ccccc12)NC(=O)[C@H](Cc1ccc(O)cc1)NC(=O)[C@@H](NC(=O)[C@H](CC(N)=O)NC(=O)[C@H](CCC(=O)O)NC(=O)[C@H](Cc1ccc(O)cc1)NC(C)=O)C(C)(C)C)c1ccccc1)C(N)=O
Avg. IC50, human hemolysis assay (human C5 protein [1]): 2940 nM
Avg. IC50 (nM), human hemolysis assay (human C5 protein [3]): 2940 nM

Ac-[Nva]C[Phg]TW[Ala(1H-tetrazol-5-yl)]Y[NMeS]HC[Nva]-NH2 (linker 2-10 via mXylyl(3)) [R3131]
Avg. IC50, human hemolysis assay (human C5 protein [1]): > 100000 nM
Avg. IC50 (nM), human hemolysis assay (human C5 protein [4]): > 100000 nM

B2: R3041 (peptide)
peptide: Ac-YEN[Tle]YWEYP[Phg][Nva]-NH2
SMILES: CCC[C@H](NC(=O)[C@@H](NC(=O)[C@@H]1CCCN1C(=O)[C@H](Cc1ccc(O)cc1)NC(=O)[C@H](CCC(=O)O)NC(=O)[C@H](Cc1c[nH]c2ccccc12)NC(=O)[C@H](Cc1ccc(O)cc1)NC(=O)[C@@H](NC(=O)[C@H](CC(N)=O)NC(=O)[C@H](CCC(=O)O)NC(=O)[C@H](Cc1ccc(O)cc1)NC(C)=O)C(C)(C)C)c1ccccc1)C(N)=O
Avg. IC50, human hemolysis assay (human C5 protein [1]): 71.3 nM
Avg. IC50 (nM), human hemolysis assay (human C5 protein [3]): 71.3 nM

Ac-[Nva]C[Phg]T[Trp(1-Me)]EY[NMeS]AC[Nva]-NH2 (linker 2-10 via mXylyl(3)) [R3109]
Avg. IC50, human hemolysis assay (human C5 protein [1]): > 100000 nM
Avg. IC50 (nM), human hemolysis assay (human C5 protein [4]): > 100000 nM

Ac-CVERFCWEF-NH2 (linker 1-6 via mXylyl(3)) [R3125]
Avg. IC50, human hemolysis assay (human C5 protein [1]): > 100000 nM
Avg. IC50 (nM), human hemolysis assay (human C5 protein [5]): > 100000 nM

Ac-[Nva]C[Phg]T[dW]EY[NMeS]HC[Nva]-NH2 (linker 2-10 via mXylyl(3)) [R3132]
Avg. IC50, human hemolysis assay (human C5 protein [1]): > 100000 nM
Avg. IC50 (nM), human hemolysis assay (human C5 protein [4]): > 100000 nM

Ac-KVERFD[NMeD][Tle]YWEYP[Chg][Lys(ivDde)] (lactam 1-6) [R3197]
Avg. IC50, hemolysis assay with C5 depleted sera (human C5 protein [6]): 4 nM

Ac-[Nva]C[Phg]TFEY[NMeS]AC[Nva]-NH2 (linker 2-10 via mXylyl(3)) [R3092]
Avg. IC50, human hemolysis assay (human C5 protein [1]): > 50000 nM
Avg. IC50 (nM), human hemolysis assay (human C5 protein [4]): > 50000 nM

Ac-[Nva]C[Phg]TAEY[NMeS]HC[Nva]-NH2 (linker 2-10 via mXylyl(4)) [R3034]
Avg. IC50, human hemolysis assay (human C5 protein [1]): > 50000 nM
Avg. IC50 (nM), human hemolysis assay (human C5 protein [4]): > 50000 nM

[Mpa][dA]ERFC[NMeD][Tle]Y[Trp(7-aza)]EYP[Chg]K(Palmitoyl) (bridge 1-6; also: cyclo(1,6) between Cys1 and Cys6, ring kind not given here) [R3199]
Avg. IC50, hemolysis assay with C5 depleted sera (human C5 protein [6]): 112 nM

Ac-[Nva]C[Phg]TWEY[NMeS]AC[Nva]-NH2 (linker 2-10 via mXylyl(3)) [R3091]
Avg. IC50, human hemolysis assay (human C5 protein [1]): 483 nM
Avg. IC50 (nM), human hemolysis assay (human C5 protein [4]): 483 nM

MCVERFCDV-NH2 (linker 2-7 via mXylyl(4)) [R3046]
Avg. IC50, human hemolysis assay (human C5 protein [1]): > 100000 nM
Avg. IC50 (nM), human hemolysis assay (human C5 protein [2]): > 100000 nM

[Mpa]VERFC[NMeD][Tle]Y[Trp(7-aza)]EYP[Chg]K(Palmitoyl) (bridge 1-6; also: cyclo(1,6) between Cys1 and Cys6, ring kind not given here) [R3198]
Avg. IC50, hemolysis assay with C5 depleted sera (human C5 protein [6]): 142 nM

Ac-CVERFCVYWEF-NH2 (linker 1-6 via mXylyl(3)) [R3124]
Avg. IC50, human hemolysis assay (human C5 protein [1]): > 100000 nM
Avg. IC50 (nM), human hemolysis assay (human C5 protein [5]): > 100000 nM

KVERFDDGYWEYPGK ([cyclo(1,6)]Ac-K-V-E-R-F-D-(N-Me)D-Tbg-Y-azaTrp-E-Y-P-Chg-(Lys-C16)) [R3183]
IC50, alternative pathway of complement activation (WIESLAB kit, serum samples) (human C5 protein [7]): 12.5 nM
IC50, formation of the MAC (MAC EIA on human RBC hemolysis supernatant) (human C5 protein [7]): 6.9 nM
IC50, hemolysis assay with 1% cynomolgus monkey serum (primate C5 protein): 4.2 nM

VCYENGYWEYPGV (Ac-Nvl-C-Y-E-N-Tbg-Y-azaTrp-E-Y-P-Phg-Nvl-NH2) [R3002]
IC50, formation of C5a (C5a EIA on human RBC hemolysis supernatant) (human C5 protein [7]): 5.4 nM

Ac-CVERFCDVYWEF-NH2 (linker 1-6 via mXylyl(4)) [R3048]
Avg. IC50, human hemolysis assay (human C5 protein [1]): 19.3 nM
Avg. IC50 (nM), human hemolysis assay (human C5 protein [5]): 19.3 nM

B3: R3119 (peptide)
peptide: Ac-YENY[dW]EYP[Phg][Nva]-NH2
SMILES: CCC[C@H](NC(=O)[C@@H](NC(=O)[C@@H]1CCCN1C(=O)[C@H](Cc1ccc(O)cc1)NC(=O)[C@H](CCC(=O)O)NC(=O)[C@@H](Cc1c[nH]c2ccccc12)NC(=O)[C@H](Cc1ccc(O)cc1)NC(=O)[C@H](CC(N)=O)NC(=O)[C@H](CCC(=O)O)NC(=O)[C@H](Cc1ccc(O)cc1)NC(C)=O)c1ccccc1)C(N)=O
Avg. IC50, human hemolysis assay (human C5 protein [1]): > 100000 nM
Avg. IC50 (nM), human hemolysis assay (human C5 protein [3]): > 100000 nM

MCVERFCDVYWE-NH2 (linker 2-7 via mXylyl(4)) [R3043]
Avg. IC50, human hemolysis assay (human C5 protein [1]): 934 nM
Avg. IC50 (nM), human hemolysis assay (human C5 protein [2]): 934 nM

Ac-[Nva]C[Phg]T[Trp(7-aza)]EY[NMeS]HC[Nva]P[Nva]-NH2 (linker 2-10 via mXylyl″) [R3008]
IC50, formation of C5a (C5a EIA on human RBC hemolysis supernatant) (human C5 protein [7]): 54.5 nM
IC50, formation of the MAC (MAC EIA on human RBC hemolysis supernatant) (human C5 protein [7]): 33 nM
Avg. IC50, human hemolysis assay (human C5 protein [1]): 97 nM
Avg. IC50 (nM), human hemolysis assay (human C5 protein [4]): 97 nM

Ac-[Nva]C[Phg]T[Trp(5-F)]EY[NMeS]AC[Nva]-NH2 (linker 2-10 via mXylyl(3)) [R3088]
Avg. IC50, human hemolysis assay (human C5 protein [1]): > 100000 nM
Avg. IC50 (nM), human hemolysis assay (human C5 protein [4]): > 100000 nM

Ac-[Nva]CYNN[Tle]ECEYP[Phg][Tle]-NH2 (cysteine pairing not given here) [R3128]
Avg. IC50, human hemolysis assay (human C5 protein [1]): > 100000 nM
Avg. IC50 (nM), human hemolysis assay (human C5 protein [3]): > 100000 nM

Ac-[Nva]CYEN[Tle]YCEYP[Phg][Nva]-NH2 (linker 2-8 via mXylyl″) [R3017]
Avg. IC50, human hemolysis assay (human C5 protein [1]): > 100000 nM
Avg. IC50 (nM), human hemolysis assay (human C5 protein [3]): > 100000 nM
